From IntAct's records for PubMed 33758649

B1: Protein PALS1 (Homo sapiens), Q8N3R9 (parent)
chain: MTTSHMNGHVTEESDSEVKNVDLASPEEHQKHREMAVDCPGDLGTRMMPIRRSAQLERIRQQQEDMRRRREEEGKKQELDLNSSMRLKKLAQIPPKTGIDNPMFDTEEGIVLESPHYAVKILEIEDLFSSLKHIQHTLVDSQSQEDISLLLQLVQNKDFQNAFKIHNAITVHMNKASPPFPLISNAQDLAQEVQTVLKPVHHKEGQELTALLNTPHIQALLLAHDKVAEQEMQLEPITDERVYESIGQYGGETVKIVRIEKARDIPLGATVRNEMDSVIISRIVKGGAAEKSGLLHEGDEVLEINGIEIRGKDVNEVFDLLSDMHGTLTFVLIPSQQIKPPPAKETVIHVKAHFDYDPSDDPYVPCRELGLSFQKGDILHVISQEDPNWWQAYREGDEDNQPLAGLVPGKSFQQQREAMKQTIEEDKEPEKSGKLWCAKKNKKKRKKVLYNANKNDDYDNEEILTYEEMSLYHQPANRKRPIILIGPQNCGQNELRQRLMNKEKDRFASAVPHTTRSRRDQEVAGRDYHFVSRQAFEADIAAGKFIEHGEFEKNLYGTSIDSVRQVINSGKICLLSLRTQSLKTLRNSDLKPYIIFIAPPSQERLRALLAKEGKNPKPEELREIIEKTREMEQNNGHYFDTAIVNSDLDKAYQELLRLINKLDTEPQWVPSTWLR

Variants of: B1
Conditions: with vemp_sars E

Variant	effect of a mutation on the interaction
F318W	increasing interaction strength
